Assay [1] addresses T1, human FcRn (human, UniProt P55899 24-290; P61769 21-119).
T1 construct: Prepared by the method of WO 2010/107110; also called hFcRn
The assay is described as follows: SPR Biacore T200, captured Ab, pH 6.0, steady state. (Surface plasmon resonance follows binding to a sensor surface in real time, without labels.)

Assay [2] deals with T2, human FcγRIIb extracellular domain with C-terminal His-tag (human, UniProt P31994 43-217).
T2 construct: extracellular domain; also called hFcγR IIb
T2 sequence (looked up): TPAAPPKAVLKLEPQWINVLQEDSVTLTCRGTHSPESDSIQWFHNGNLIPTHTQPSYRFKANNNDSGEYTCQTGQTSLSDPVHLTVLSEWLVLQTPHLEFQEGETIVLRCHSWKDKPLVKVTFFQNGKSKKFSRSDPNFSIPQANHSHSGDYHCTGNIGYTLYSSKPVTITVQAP
The assay is described as follows: SPR; binding amount divided by that of 04H1389-G1m/04L1305-k0MT.

In assay [3] the target is T3, human FcγRIIIa V allotype extracellular domain with C-terminal His-tag (human, UniProt P08637 17-208).
T3 construct: extracellular domain; also called hFcγR IIIa V
T3 sequence (P08637 17-208 F176V): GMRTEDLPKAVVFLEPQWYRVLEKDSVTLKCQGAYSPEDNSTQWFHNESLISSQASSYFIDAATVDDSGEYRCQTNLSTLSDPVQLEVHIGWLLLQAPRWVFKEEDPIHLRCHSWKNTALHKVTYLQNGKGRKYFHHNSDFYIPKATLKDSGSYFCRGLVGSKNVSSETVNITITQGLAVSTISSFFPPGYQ
The assay is described as follows: SPR; KD of 04H1389-G1m/04L1305-k0MT divided by KD of variant.

Assay [4] has as its target T1, human FcRn. The assay is described as above.
The target in assay [5] is T4, human FcγRIIa R allotype extracellular domain with C-terminal His-tag (human, UniProt P12318 34-217).
T4 construct: extracellular domain; also called hFcγR IIa R
T4 sequence (looked up): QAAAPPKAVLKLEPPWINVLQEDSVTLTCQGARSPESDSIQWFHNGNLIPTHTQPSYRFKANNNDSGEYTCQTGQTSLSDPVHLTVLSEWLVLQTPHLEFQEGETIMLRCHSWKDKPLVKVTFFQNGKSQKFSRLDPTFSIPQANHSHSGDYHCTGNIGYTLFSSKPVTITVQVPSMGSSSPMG
The description is as above.

Assay [6] concerns the target T5, human FcγRIa extracellular domain with C-terminal His-tag (human, UniProt P12314 16-292).
T5 construct: extracellular domain; also called hFcγR Ia; hFcγRIa
Described as above.

The target in assay [7] is T6, human FcγRIIa H allotype extracellular domain with C-terminal His-tag (human, UniProt P12318 34-217).
T6 construct: extracellular domain; also called hFcγR IIa H
T6 sequence (looked up): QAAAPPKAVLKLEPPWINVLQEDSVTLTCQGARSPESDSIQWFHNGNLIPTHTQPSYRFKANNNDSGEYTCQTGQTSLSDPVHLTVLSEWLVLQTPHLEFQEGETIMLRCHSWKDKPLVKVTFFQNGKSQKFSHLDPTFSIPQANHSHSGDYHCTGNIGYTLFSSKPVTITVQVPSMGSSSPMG
Described as above.

The target of assay [8] is T7, human FcγRIIIa F allotype extracellular domain with C-terminal His-tag (human, UniProt P08637 17-208).
T7 construct: extracellular domain; also called hFcγR IIIa F
T7 sequence (P08637 17-208): as the sequence (P08637 17-208 F176V) above, with V160F counted along it
The description is as above.

Assay [9] deals with T3, human FcγRIIIa V allotype extracellular …. The assay is described as follows: SPR Biacore T200, captured Ab, pH 7.4.
Assay [10] deals with T4, human FcγRIIa R allotype extracellular …. The assay is described as follows: SPR Biacore T200, captured Ab, pH 7.4.
Assay [11] has as its target T5, human FcγRIa extracellular domain with …. Put plainly: SPR Biacore T200, captured Ab, pH 7.4.
Assay [12] addresses T6, human FcγRIIa H allotype extracellular …. Put plainly: SPR Biacore T200, captured Ab, pH 7.4.
In assay [13] the target is T7, human FcγRIIIa F allotype extracellular …. The assay is described as follows: SPR Biacore T200, captured Ab, pH 7.4.
For assay [14], the target named is T2, human FcγRIIb extracellular domain with …. Put plainly: SPR; FcγRIIb bound amount per unit captured Ab.

T5 sequence (P12314 16-292): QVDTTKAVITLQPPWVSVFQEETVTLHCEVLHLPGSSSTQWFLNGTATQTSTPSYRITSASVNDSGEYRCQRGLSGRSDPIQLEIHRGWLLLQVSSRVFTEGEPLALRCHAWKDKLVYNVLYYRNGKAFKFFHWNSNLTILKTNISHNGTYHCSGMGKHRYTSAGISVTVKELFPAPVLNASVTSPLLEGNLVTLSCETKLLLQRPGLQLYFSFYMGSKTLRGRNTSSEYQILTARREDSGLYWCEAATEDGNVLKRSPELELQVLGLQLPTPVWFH
T1 sequence (P55899 24-290 limits assumed, chain 1 of 2): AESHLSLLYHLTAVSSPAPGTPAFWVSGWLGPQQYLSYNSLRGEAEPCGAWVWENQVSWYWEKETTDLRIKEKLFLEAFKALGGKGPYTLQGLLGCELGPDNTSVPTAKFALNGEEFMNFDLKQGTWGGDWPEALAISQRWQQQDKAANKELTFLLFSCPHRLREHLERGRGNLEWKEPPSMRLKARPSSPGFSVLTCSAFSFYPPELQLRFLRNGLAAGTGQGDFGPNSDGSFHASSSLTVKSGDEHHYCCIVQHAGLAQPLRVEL
T1 sequence (P61769 21-119 limits assumed, chain 2 of 2): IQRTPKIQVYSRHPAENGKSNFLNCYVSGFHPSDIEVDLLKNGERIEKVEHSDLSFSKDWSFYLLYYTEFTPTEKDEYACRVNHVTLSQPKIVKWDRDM

B1: 04H1389-Km473/04L1305-k0MT//04H1389-Hm451/04L1305-k0MT (antibody)
heavy 1: EVQLVESGGGLVKPGGSLRLSCAASGFTFSSKTMNWVRQAPGKGLEWVSSISTQSHYIYYAESVKGRFTISRDNAKNSLYLQMNSLRAEDTAVYYCARYGKREDMLWVFDYWGQGTLVTVSSASTKGPSVFPLAPSSKSTSGGTAALGCLVKDYFPEPVTVSWNSGALTSGVHTFPAVLQSSGLYSLSSVVTVPSSSLGTQTYICNVNHKPSNTKVDKRVEPKSCDKTHTCPPCPAPEFQWGPMVFLFPPKPKDVLMISRTPEVTCVVVDVSDEEPEVKFNWYVDGVEVHNAKTKPREEQYNATYRVVSVLPVLHQDWLNGKEYKCKVSNDALPAPIEKTISKAKGQPREPQVCTLPPSREEMTKNQVSLWCLVKGFYPSDIAVEWESNGQPENNYKTTPPVLDSDGSFFLYSKLTVDKSRWQQGNVFSCSVMHEALHAHTTRKELSLSP
heavy 2: EVQLVESGGGLVKPGGSLRLSCAASGFTFSSKTMNWVRQAPGKGLEWVSSISTQSHYIYYAESVKGRFTISRDNAKNSLYLQMNSLRAEDTAVYYCARYGKREDMLWVFDYWGQGTLVTVSSASTKGPSVFPLAPSSKSTSGGTAALGCLVKDYFPEPVTVSWNSGALTSGVHTFPAVLQSSGLYSLSSVVTVPSSSLGTQTYICNVNHKPSNTKVDKRVEPKSCDKTHTCPPCPAPELLAGPSVFLFPPKPKDVLMISRTPEVTCVVVDVSHEEPEVKFNWYVDGVEVHNAKTKPREEQYNATYRVVSVLPVLHQDWLNGKEYKCKVSNDALPAPIEETISKAKGQPREPQVYTLPPSRCEMTKNQVSLSCAVKGFYPSDIAVEWESNGQPENNYKTTPPVLDSDGSFFLVSKLTVDKSRWQQGNVFSCSVMHEALHAHTTRKELSLSP
light: DIVMTQSPLSLPVTPGEPASISCDGPSTGVGDYNYVHWYQQKPGQAPRLLIYFTSKKPSGVPDRFSGSGSGTDFTLKISRVEAEDVGVYYCQTYAAPLGPMFGQGTKLEIKRTVAAPSVFIFPPSDEQLKSGTASVVCLLNNFYPREAKVQWKVDNALQSGNSQESVTEQDSKDSTYSLSSTLTLSKADYEKHKVYACEVTHQGLSSPVTKSFNRGEC
notes: Heterodimerized antibody; also called SW1389-ART5+ACT1
For the molecule B1, the Kd (commonly the constant that tells how readily two partners part at equilibrium) with human FcRn [1] amounted to 330 nM; in assay [9], 3.9 nM; in assay [10], 160 nM; in [11] it was 0.15 nM; in assay [12], 53 nM; in [13] it was 17 nM. The molecule also displayed a Relative binding amount in assay [2] of 1.3. Besides, the “Relative value to KD between G1m and hFcγRs” value in [3] was found to be 225; in assay [5] it was 9.7; in [6], 0.5; in assay [7], 20; in [8], 41.3. Moreover, the “Relative value to KD between G1m and hFcRn” value with human FcRn [4] stood at 3. The molecule also displayed a Binding amount in assay [14] of 0.015.

B2: 04H1389-Km473/04L1305-k0MT//04H1389-Hm482/04L1305-k0MT (antibody)
heavy 1: EVQLVESGGGLVKPGGSLRLSCAASGFTFSSKTMNWVRQAPGKGLEWVSSISTQSHYIYYAESVKGRFTISRDNAKNSLYLQMNSLRAEDTAVYYCARYGKREDMLWVFDYWGQGTLVTVSSASTKGPSVFPLAPSSKSTSGGTAALGCLVKDYFPEPVTVSWNSGALTSGVHTFPAVLQSSGLYSLSSVVTVPSSSLGTQTYICNVNHKPSNTKVDKRVEPKSCDKTHTCPPCPAPEFQWGPMVFLFPPKPKDVLMISRTPEVTCVVVDVSDEEPEVKFNWYVDGVEVHNAKTKPREEQYNATYRVVSVLPVLHQDWLNGKEYKCKVSNDALPAPIEKTISKAKGQPREPQVCTLPPSREEMTKNQVSLWCLVKGFYPSDIAVEWESNGQPENNYKTTPPVLDSDGSFFLYSKLTVDKSRWQQGNVFSCSVMHEALHAHTTRKELSLSP
heavy 2: EVQLVESGGGLVKPGGSLRLSCAASGFTFSSKTMNWVRQAPGKGLEWVSSISTQSHYIYYAESVKGRFTISRDNAKNSLYLQMNSLRAEDTAVYYCARYGKREDMLWVFDYWGQGTLVTVSSASTKGPSVFPLAPSSKSTSGGTAALGCLVKDYFPEPVTVSWNSGALTSGVHTFPAVLQSSGLYSLSSVVTVPSSSLGTQTYICNVNHKPSNTKVDKRVEPKSCDKTHTCPPCPAPELLAGPSVFLFPPKPKDVLMISRTPEVTCVVVDVSHEEPEVKFNWYVDGVEVHNAKTKPREEQYNATYRVVSVLPVLHQDWLNGKEYKCKVSNDALPKPDEETISKAKGQPREPQVYTLPPSRCEMTKNQVSLSCAVKGFYPSDIAVEWESNGQPENNYKTTPPVLDSDGSFFLVSKLTVDKSRWQQGNVFSCSVMHEALHAHTTRKELSLSP
light: DIVMTQSPLSLPVTPGEPASISCDGPSTGVGDYNYVHWYQQKPGQAPRLLIYFTSKKPSGVPDRFSGSGSGTDFTLKISRVEAEDVGVYYCQTYAAPLGPMFGQGTKLEIKRTVAAPSVFIFPPSDEQLKSGTASVVCLLNNFYPREAKVQWKVDNALQSGNSQESVTEQDSKDSTYSLSSTLTLSKADYEKHKVYACEVTHQGLSSPVTKSFNRGEC
notes: Heterodimerized antibody; also called SW1389-ART6+ACT1
Regarding B2, the equilibrium dissociation constant (Kd) with human FcRn [1] was 370 nM; in [9], 0.95 nM; in assay [10] it was 86 nM; in [11], 0.061 nM; in [12], 35 nM; in assay [13], 2.7 nM. The molecule also registered a Relative binding amount in assay [2] of 3. For the same molecule, the “Relative value to KD between G1m and hFcγRs” value amounted to 930 in assay [3]; 18.5 in [5]; 1.1 in assay [6]; 30.8 in assay [7]; 258 in assay [8]. The “Relative value to KD between G1m and hFcRn” value in the assay with human FcRn [4] was determined as 2.7. The molecule also came in with a Binding amount in assay [14] of 0.034.

The values are drawn from patent publication US20260022175A1 (Chugai, published 2026).
